Consider 1 substance from patent publication US20240228595A1.

The assay addresses SARS-COV-2 RBD-his tag protein (Sino Biological) (SARS-CoV-2) (UniProt P0DTC2). In words: ELISA, SARS-CoV-2-WA-1 RBD coated, antibody titrated. (In general: ELISA stands for enzyme-linked immunosorbent assay.)

Broadly, the EC50 is the concentration at which the effect is half-maximal.

In turn, S309 (Sotrovimab) (antibody) yielded an EC50 of 2 ng/mL.
